Like-named read-outs stand apart in the source and are kept apart here.
Assays:
[1] = biological target: T1, StAckA (Salmonella typhimurium acetate kinase, AckA) (Salmonella enterica, UniProt P63411); experiment: kinetic assay after […] min preincubation at […] °C with inhibitor; format: biochemical
T1 construct: expressed in E. coli; Ni-NTA and gel filtration; homodimer
T1 sequence (P63411 1-400): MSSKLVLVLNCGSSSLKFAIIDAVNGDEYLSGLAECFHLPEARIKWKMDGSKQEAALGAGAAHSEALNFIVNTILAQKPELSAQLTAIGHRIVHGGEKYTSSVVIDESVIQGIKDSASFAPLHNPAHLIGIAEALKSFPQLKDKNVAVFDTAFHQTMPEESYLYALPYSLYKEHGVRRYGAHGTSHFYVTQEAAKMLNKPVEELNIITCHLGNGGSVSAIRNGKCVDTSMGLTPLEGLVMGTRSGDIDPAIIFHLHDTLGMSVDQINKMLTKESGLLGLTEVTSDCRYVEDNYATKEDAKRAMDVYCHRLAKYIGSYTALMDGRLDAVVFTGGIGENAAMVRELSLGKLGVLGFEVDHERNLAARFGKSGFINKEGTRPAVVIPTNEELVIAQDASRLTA

[2] = biological target: T1, StAckA (Salmonella typhimurium acetate kinase, AckA); experiment: CD thermal denaturation; format: binding; conditions: ligand close to its Km, pH 7.5; unliganded reference Tm 45 °C
[3] = biological target: T1, StAckA (Salmonella typhimurium acetate kinase, AckA); experiment: inhibition of acetate utilization, kinetic assay; format: biochemical; conditions: equimolar to acetate; not a substrate
[4] = biological target: T1, StAckA (Salmonella typhimurium acetate kinase, AckA); experiment: initial velocity assay, acetyl-phosphate synthesis direction; format: biochemical; conditions: co-substrate acetate, Mg2+, pH 7.5, 37 °C
Description: (§1) initial velocity assay, acetyl-phosphate synthesis direction on StAckA (Salmonella typhimurium acetate kinase, AckA)

[5] = biological target: T1, StAckA (Salmonella typhimurium acetate kinase, AckA); experiment: X-ray crystal structure, […] Å; format: binding; conditions: dimeric interface pocket, one citrate per dimer; citrate from crystallization condition
[6] = biological target: T1, StAckA (Salmonella typhimurium acetate kinase, AckA); experiment: CD thermal denaturation; format: binding; conditions: read-out: dTm
purified protein [7] = substrate: CC(=O)O; experiment: purified protein; conditions: ATP, Mg2+, pH 7.5, 37 °C
purified protein [8] = substrate: CC(=O)OP(=O)(O)O; experiment: purified protein; format: biochemical, Salmonella enterica; conditions: reverse reaction (ATP synthesis), ADP, Mg2+, pH 7.5, 37 °C
purified protein [9] = substrate: CCC(=O)O; experiment: purified protein; format: biochemical, Salmonella enterica; conditions: ATP, Mg2+, pH 7.5, 37 °C
purified protein [10] = substrate: Nc1ncnc2c1ncn2[C@@H]1O[C@H](COP(=O)(O)OP(=O)(O)O)[C@@H](O)[C@H]1O; experiment: purified protein; format: biochemical, Salmonella enterica; conditions: reverse reaction (ATP synthesis), acetyl-phosphate, Mg2+, pH 7.5, 37 °C
purified protein [11] = substrate: Nc1ncnc2c1ncn2[C@@H]1O[C@H](COP(=O)(O)OP(=O)(O)OP(=O)(O)O)[C@@H](O)[C@H]1O; experiment: purified protein; format: biochemical, Salmonella enterica; conditions: co-substrate acetate, Mg2+, pH 7.5, 37 °C
[12] = substrate: Nc1nc2c(ncn2[C@@H]2O[C@H](COP(=O)(O)OP(=O)(O)OP(=O)(O)O)[C@@H](O)[C@H]2O)c(=O)[nH]1; experiment: initial velocity assay, acetyl-phosphate synthesis direction; format: biochemical, Salmonella enterica; conditions: co-substrate acetate, Mg2+, pH 7.5, 37 °C
Description: as §1

[13] = substrate: O=c1ccn([C@@H]2O[C@H](COP(=O)(O)OP(=O)(O)OP(=O)(O)O)[C@@H](O)[C@H]2O)c(=O)[nH]1; experiment: as above; format: biochemical, Salmonella enterica; conditions: co-substrate acetate, Mg2+, pH 7.5, 37 °C
Description: as §1

Work on `O=C(O)CCC(=O)O` [Succinate] yielded an IC50 ([1]; read-out: Vmax(μmol min^-1 mg^-1)) of 75 ± 20 mM.

Molecule `NCCC(N)C(=O)O` (stereo not drawn) [2,4-DAB] has an IC50 ([1]; read-out: kcat/Km(s^-1 mM^-1), saturating cognate ligand, 37 °C) of 5 ± 2.2 mM.

`Nc1ncnc2c1ncn2[C@@H]1O[C@H](COP(=O)(O)OP(=O)(O)O)[C@@H](O)[C@H]1O` [ADP] gave a Tm [2] of 52 °C.

`CC(=O)OP(=O)(O)O` [Acetyl-phosphate] showed a Tm [2] of 54 °C.

In the case of `CCCC(=O)O` [butyrate], the “% reduction of rate at equimolar concentration” value [3] is reported as 40%.

`Nc1ccn([C@@H]2O[C@H](COP(=O)(O)OP(=O)(O)OP(=O)(O)O)[C@@H](O)[C@H]2O)c(=O)n1` [CTP] was tested, and the “kcat/Km(s^-1 mM^-1)” value [4] was 88 ± 42 µM.

With `CCC(=O)C(=O)O` [2-KB] the IC50 ([1]; read-out: [I]) was 3 ± 1.3 mM.

For `O=C(O)CC(O)(CC(=O)O)C(=O)O` [Citrate], the “X-ray crystal structure, 1.90 Å” value [5] was “only one citrate binds at the dimeric interface resulting in an asymmetric dimer”, the IC50 ([1]; read-out: Km) was 63 ± 15 mM and the ΔTm at 10000 µM [6] was 10 °C.

Molecule `O=C(O)CCC(=O)C(=O)O` [α-KG] has an IC50 ([1]; read-out: kcat(s^-1)) of 7 ± 1.8 mM.

In the case of `O=C(O)C[C@H](O)C(=O)O` [Malate], the IC50 ([1]; read-out: [I]) is reported as 1 ± 0.5 mM.

B1: StAckA (Salmonella typhimurium acetate kinase, AckA) (Salmonella enterica subsp. enterica serovar Typhimurium str. LT2) (protein)
chain: MSSKLVLVLNCGSSSLKFAIIDAVNGDEYLSGLAECFHLPEARIKWKMDGSKQEAALGAGAAHSEALNFIVNTILAQKPELSAQLTAIGHRIVHGGEKYTSSVVIDESVIQGIKDSASFAPLHNPAHLIGIAEALKSFPQLKDKNVAVFDTAFHQTMPEESYLYALPYSLYKEHGVRRYGAHGTSHFYVTQEAAKMLNKPVEELNIITCHLGNGGSVSAIRNGKCVDTSMGLTPLEGLVMGTRSGDIDPAIIFHLHDTLGMSVDQINKMLTKESGLLGLTEVTSDCRYVEDNYATKEDAKRAMDVYCHRLAKYIGSYTALMDGRLDAVVFTGGIGENAAMVRELSLGKLGVLGFEVDHERNLAARFGKSGFINKEGTRPAVVIPTNEELVIAQDASRLTA
notes: expressed in E. coli; Ni-NTA and gel filtration; homodimer
With B1 the Km (purified protein [7]) was 1200 ± 100 µM, the Vmax (purified protein [7]) was 1560 µmol/min/mg and the kcat/Km (purified protein [7]) was 985000 M⁻¹ s⁻¹. For the same molecule, the Km (purified protein [8]) was 280 ± 40 µM, the Vmax (purified protein [8]) was 2350 µmol/min/mg and the kcat (purified protein [8]) was 1760 ± 25 s⁻¹. For the same molecule, the kcat/Km (purified protein [8]) was 6.3e+06 ± 45000 M⁻¹ s⁻¹, the Km (purified protein [9]) was 11200 ± 100 µM and the Vmax (purified protein [9]) was 1250 µmol/min/mg. For the same molecule, the kcat (purified protein [9]) was 940 ± 85 s⁻¹, the kcat/Km (purified protein [9]) was 85000 ± 10000 M⁻¹ s⁻¹ and the Km (purified protein [10]) was 100 ± 3 µM. For the same molecule, the Vmax (purified protein [10]) was 2340 µmol/min/mg, the kcat (purified protein [10]) was 1750 ± 65 s⁻¹ and the kcat/Km (purified protein [10]) was 1.7645e+07 ± 10000 M⁻¹ s⁻¹. The Km (purified protein [11]) was 70 ± 5 µM, the Vmax (purified protein [11]) was 1550 µmol/min/mg and the kcat (purified protein [11]) was 1170 ± 85 s⁻¹. For the same molecule, the kcat/Km (purified protein [11]) was 1.686e+07 ± 50000 M⁻¹ s⁻¹, the Km [12] was 78 ± 27 µM and the Km [13] was 96 ± 58 µM.

— publication PMC3475010 (BMC Structural Biology, 2012)
